The target in assay [1] is T1, GST-PDK1 L155E (human, UniProt O15530 1-556).
T1 construct: range 1-556; not shown: N-terminal GST tag, pEBG2T vector
T1 sequence (looked up): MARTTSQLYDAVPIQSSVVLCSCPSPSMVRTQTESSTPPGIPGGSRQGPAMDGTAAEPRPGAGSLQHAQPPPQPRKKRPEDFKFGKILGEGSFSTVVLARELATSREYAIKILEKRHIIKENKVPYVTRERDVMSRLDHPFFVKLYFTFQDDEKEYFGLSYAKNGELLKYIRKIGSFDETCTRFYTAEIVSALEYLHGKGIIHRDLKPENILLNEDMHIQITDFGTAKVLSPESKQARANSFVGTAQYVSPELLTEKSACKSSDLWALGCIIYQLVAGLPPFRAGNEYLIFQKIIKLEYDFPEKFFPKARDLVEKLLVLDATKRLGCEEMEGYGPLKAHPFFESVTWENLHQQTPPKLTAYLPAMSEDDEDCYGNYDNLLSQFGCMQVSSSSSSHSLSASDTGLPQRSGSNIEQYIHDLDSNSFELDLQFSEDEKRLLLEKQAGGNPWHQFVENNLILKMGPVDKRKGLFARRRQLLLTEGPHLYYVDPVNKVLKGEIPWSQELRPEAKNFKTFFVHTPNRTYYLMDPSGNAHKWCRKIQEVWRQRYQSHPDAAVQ
Put plainly: SPR over immobilised biotinylated PIFtide. The procedure: (§1) Duplicates of each condition are shown. Similar results were obtained in 3 to 5 separate experiments. (D) Surface Plasmon Resonance measurements were carried out in a BiaCore instrument as described in the Methods to measure the interaction of wild type and mutant GST-PDK1 preparations with the 24 residue synthetic peptide whose sequence encompasses the PDK1 binding site on PIF termed PIFtide [24: Example 2]. PIFtide was immobilised on a SA SensorChip and wild type (wt) or the indicated mutants of PDK1 were injected at a concentration of 40 nM. All data are single determinations from a representative experiment that was repeated at least 3 times with similar results. For clarity, the bulk, refractive index changes associated with the beginning and end 10 seconds of the injection have been removed.
(§2) Binding was analysed directly by surface plasmon resonance in an upgraded Bia-Lite™ system. PIFtide (comprising the last 24 residues of PRK2) was biotinylated though its C-terminal Cys and bound to an streptavidin-coated Sensor/Chip SA, as described previously. Wild type or mutant preparations of GST-PDK1 (10-400 nM) were injected in an intracellular type buffer, over the immobilised biotinylated PIFtide at a flow rate of 30 μl per min as described previously (James et al (1996) Biochem J 315, 709-713). Alternatively, the wild type or mutant preparations of GST-PDK1 (1 μM) were incubated with PIFtide or D978A-PIFtide (0.10 μM) and the mixture injected over the immobilised peptides. The decrease is steady state binding between wild type and mutant GST-PDK1 and peptide was used to determine the Kd of interaction between PDK1 and the peptide. The decrease in the maximal response at different concentrations of peptide was used to evaluate the relative affinities of both peptides for PDK1. The sensor chip surface was regenerated by pulses of 10 mM NaOH. […]

The target of assay [2] is T2, GST-PDK1 L155D (human, UniProt O15530 1-556).
T2 construct: range 1-556; also called L155D mutant of GST-PDK1; not shown: N-terminal GST tag, pEBG2T vector
T2 sequence (looked up): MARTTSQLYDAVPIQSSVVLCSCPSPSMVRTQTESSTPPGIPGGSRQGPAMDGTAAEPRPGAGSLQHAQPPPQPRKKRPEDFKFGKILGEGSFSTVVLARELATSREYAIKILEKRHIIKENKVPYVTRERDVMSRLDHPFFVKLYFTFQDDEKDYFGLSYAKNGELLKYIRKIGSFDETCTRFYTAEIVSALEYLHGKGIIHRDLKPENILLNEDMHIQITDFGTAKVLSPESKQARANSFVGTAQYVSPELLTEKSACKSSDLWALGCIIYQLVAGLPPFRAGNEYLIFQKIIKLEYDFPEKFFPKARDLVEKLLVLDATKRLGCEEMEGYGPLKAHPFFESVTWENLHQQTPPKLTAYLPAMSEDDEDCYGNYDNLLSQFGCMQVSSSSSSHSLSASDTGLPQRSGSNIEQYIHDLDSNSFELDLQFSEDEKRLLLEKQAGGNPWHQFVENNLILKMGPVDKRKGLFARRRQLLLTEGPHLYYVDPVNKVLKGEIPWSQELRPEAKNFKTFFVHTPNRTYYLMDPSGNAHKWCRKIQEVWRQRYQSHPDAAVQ
As to the kind of experiment: SPR over immobilised biotinylated PIFtide. The procedure:
as §1, §2

In assay [3] the target is T3, GST-PDK1 L155S (human, UniProt O15530 1-556).
T3 construct: range 1-556; not shown: N-terminal GST tag, pEBG2T vector
T3 sequence (looked up): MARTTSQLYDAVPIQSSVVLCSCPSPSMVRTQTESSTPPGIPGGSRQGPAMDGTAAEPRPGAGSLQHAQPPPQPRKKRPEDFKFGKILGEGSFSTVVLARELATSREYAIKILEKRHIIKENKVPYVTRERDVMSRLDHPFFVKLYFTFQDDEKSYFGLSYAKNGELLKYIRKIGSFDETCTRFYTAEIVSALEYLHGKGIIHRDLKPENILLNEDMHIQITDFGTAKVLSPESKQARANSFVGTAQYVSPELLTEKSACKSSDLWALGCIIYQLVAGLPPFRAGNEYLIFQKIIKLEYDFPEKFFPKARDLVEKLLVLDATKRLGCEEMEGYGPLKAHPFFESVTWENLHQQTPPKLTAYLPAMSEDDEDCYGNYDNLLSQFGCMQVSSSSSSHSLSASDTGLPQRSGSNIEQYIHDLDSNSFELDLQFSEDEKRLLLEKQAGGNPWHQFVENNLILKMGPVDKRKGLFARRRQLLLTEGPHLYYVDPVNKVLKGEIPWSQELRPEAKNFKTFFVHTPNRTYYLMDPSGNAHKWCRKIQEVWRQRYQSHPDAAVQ
Put plainly: SPR over immobilised biotinylated PIFtide. The procedure: as §1, §2

The target in assay [4] is T4, His-PDK1 (human, UniProt O15530 52-556).
T4 construct: range 52-556; Expressed in Sf9 cells; also called His-tagged PDK1; PDK1 (residues 52-556) with a hexahistidine tag; not shown: N-terminal hexahistidine (His) tag
T4 sequence (looked up): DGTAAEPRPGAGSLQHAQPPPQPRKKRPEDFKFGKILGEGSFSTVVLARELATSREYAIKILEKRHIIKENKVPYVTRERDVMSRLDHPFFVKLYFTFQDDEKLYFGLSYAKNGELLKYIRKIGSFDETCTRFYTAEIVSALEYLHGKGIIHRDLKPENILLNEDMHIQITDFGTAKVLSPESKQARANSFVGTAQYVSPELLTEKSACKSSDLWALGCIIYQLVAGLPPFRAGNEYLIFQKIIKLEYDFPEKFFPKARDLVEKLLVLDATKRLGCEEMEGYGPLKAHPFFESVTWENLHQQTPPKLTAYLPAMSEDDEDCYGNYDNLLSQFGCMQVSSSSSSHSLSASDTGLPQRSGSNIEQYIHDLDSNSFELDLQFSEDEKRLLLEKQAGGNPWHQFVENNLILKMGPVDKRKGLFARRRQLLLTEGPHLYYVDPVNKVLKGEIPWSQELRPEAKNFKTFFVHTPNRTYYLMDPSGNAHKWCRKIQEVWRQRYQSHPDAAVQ
As to the kind of experiment: SPR, immobilised biotinylated 24 residue peptide. In general terms: In SPR one partner is held on a chip, and binding of the other changes the refractive index at the surface.

Assay [5] addresses T1, GST-PDK1 L155E. Put plainly: binding experiment not described (presumably pull-down). The procedure:
Binding of PDK1 to SGK1 and S6K1. For the data presented in FIG. 22, 293 cells were cotransfected with 10 μg of the wild type or mutant PDK1 plasmid and 10 μg of either the wild type or mutant S6K1 or SGK1. 36 h post-transfection the cells were lysed in 0.6 ml of Buffer A and the lysates were cleared by centrifugation at 13 000×g for 10 min at 2° C., and 0.5 ml of supernatant was incubated for 2 h at 4° C. with 30 μl of glutathione-Sepharose. The beads were washed twice in Buffer A containing 0.5 M NaCl, followed by two further washes in Buffer A. The beads were resuspended in 30 μl Laemmli Sample Buffer and subjected to SDS polyacrylamide gel electrophoresis. The gels were either stained with Coomassie blue, or analysed by immunoblotting with either anti-Flag or anti-Myc antibodies (described below).
Interaction of S6K1 and SGK1 with PDK1. […] We therefore tested whether this could be explained by the inability of full length S6K1 to interact with PDK1. To test this hypothesis we coexpressed in 293 cells GST-PDK1 together with full length S6K1, fill length S6K1[T412E] and the C-terminal truncated forms of these mutants (S6K1-T2 and S6K1-T2[T412E]) which have Flag epitope tags. Glutathione-Sepharose “pull-downs” of GST-PDK1 from these extracts were immunoblotted for the presence of Flag epitope tagged S6K1. […] S6K1-T2[T412E] interacted moderately better with GST-PDK1 compared to S6K1-T2.

“And” between values parts separate entries of the source, which are not always exact repeats. Equal entries are not always repeated. Where no end group is shown, it is not given here. The star is where a group is joined. Biotin = O=C1N[C@H]2[C@H](CS[C@H]2CCCCC(=O)*)N1

B1: biotinylated PIFtide, immobilised (peptide)
peptide: REPRILSEEEQEMFRDFDYIADWC(Biotin)
notes: also called immobilised, biotinylated synthetic peptide termed PIFtide; immobilised and biotinylated 24 residue synthetic peptide
For B1, the binding result in assay [1], in assay [2] and in assay [3] was “no binding (tested: injected at 40 nM)” each time. Further, the Kd in assay [4] was 0.8 µM and 1.5 µM.

B2: full length S6K1 mutant in which Thr412 and all five phosphorylated C-terminal residues were mutated to acidic residues (enzyme, human, UniProt P23443 1-525, looked up)
chain: MRRRRRRDGFYPAPDFRDREAEDMAGVFDIDLDQPEDAGSEDELEEGGQLNESMDHGGVGPYELGMEHCEKFEISETSVNRGPEKIRPECFELLRVLGKGGYGKVFQVRKVTGANTGKIFAMKVLKKAMIVRNAKDTAHTKAERNILEEVKHPFIVDLIYAFQTGGKLYLILEYLSGGELFMQLEREGIFMEDTACFYLAEISMALGHLHQKGIIYRDLKPENIMLNHQGHVKLTDFGLCKESIHDGTVTHTFCGTIEYMAPEILMRSGHNRAVDWWSLGALMYDMLTGAPPFTGENRKKTIDKILKCKLNLPPYLTQEARDLLKKLLKRNAASRLGAGPGDAGEVQAHPFFRHINWEELLARKVEPPFKPLLQSEEDVSQFDSKFTRQTPVDSPDDSTLSESANQVFLGFEYVAPSVLESVKEKFSFEPKIRDPRRFIGDPREPVDPVKFDPGDFWGRGASASTANPQTPVEYPMETSGIEQMDVTMSGEASAPLPIRQPNSGPYKKQAFPMISKRPEHLRMNL
notes: mature
On to B2, for which the binding result in assay [5] is “no binding”.

A word on the Kd: it is the constant that tells how readily two partners part at equilibrium. A lower Kd goes with tighter binding.

Source of the values: patent US20030143656A1 (published 2003).
